# How the values were obtained:
# HeLa Kyoto [1] = assay: solubility change mitosis vs G1/S (difference of NP-40 vs SDS log2 ratios) (log2 ratio difference); higher = more soluble in mitosis
# HeLa Kyoto [2] = assay: thermal stability score vs G1/S (z-score of summed log2 fold changes over temperatures); higher = more thermally stable than in G1/S
# HeLa Kyoto [3] = assay: melting temperature (median over replicates), in situ; higher = more thermally stable
# HeLa Kyoto [4] = assay: solubility in G1/S (NP-40 vs SDS abundance) (log2 ratio); higher = more soluble; settings: cell cycle stage: G1/S
# [5] = cell cycle stage: early G1 (4.5 h after nocodazole release)
# 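Throughout, for melting temperature (median over replicates), in situ: HeLa Kyoto cells synchronized by double thymidine or nocodazole block, proteins quantified by TMT10plex mass spectrometry, three independent biological replicates.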
# 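Throughout, for solubility change mitosis vs G1/S (difference of NP-40 vs SDS log2 ratios): synchronized HeLa Kyoto cells (double thymidine block for G1/S, nocodazole release for mitosis), protein amounts in NP-40 versus SDS lysates quantified by mass spectrometry, three biological replicates.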
# 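Throughout, for solubility in G1/S (NP-40 vs SDS abundance): HeLa Kyoto cells arrested at G1/S by double thymidine block, proteins quantified by TMT10plex mass spectrometry in mild NP-40 versus SDS extracts, three biological replicates.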
# 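Throughout, for thermal stability score vs G1/S (z-score of summed log2 fold changes over temperatures): synchronized HeLa Kyoto cells, proteins quantified by TMT10plex mass spectrometry, three biological replicates, mitosis taken 0.5 h after nocodazole release, G1/S directly after double thymidine block.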
Sequence,solubility change mitosis (log2) (HeLa Kyoto [1]),thermal stability score (HeLa Kyoto [2]; [5]),thermal stability score (HeLa Kyoto [2]; cell cycle stage: mitosis),melting temperature (HeLa Kyoto [3]; cell cycle stage: G1/S),melting temperature (HeLa Kyoto [3]; cell cycle stage: mitosis),solubility in G1/S (log2) (HeLa Kyoto [4])
MACAAVMIPGLLRCSVGAIRIEAASLRLTLSTLRHLTLTSIMKSKRKTDHMERTASVLRREIVSAAKVCGAASESPSVKSLRLLVADQDFSFKAGQWVDFFIPGVSVVGGFSICSSPRLLEQERVIELAVKYTNHPPALWVHNTCTLDCEVAVRVGGEFFFDPQPADASRNLVLIAGGVGINPLLSILRHAADLLREQANKRNGYEIGTIKLFYSAKNTSELLFKKNILDLVNEFPEKIACSLHVTKQTTQINAELKPYITEGRITEKEIRDHISKETLFYICGPPPMTDFFSKQLENNHVPKEHICFEKWW [OXNAD1],-0.0113,-0.605,-0.938,53.9 °C,54.7 °C,-0.0285
MACRGGAGNGHRASATLSRVSPGSLYTCRTRTHNICMVSDFFYPNMGGVESHIYQLSQCLIERGHKVIIVTHAYGNRKGIRYLTSGLKVYYLPLKVMYNQSTATTLFHSLPLLRYIFVRERVTIIHSHSSFSAMAHDALFHAKTMGLQTVFTDHSLFGFADVSSVLTNKLLTVSLCDTNHIICVSYTSKENTVLRAALNPEIVSVIPNAVDPTDFTPDPFRRHDSITIVVVSRLVYRKGIDLLSGIIPELCQKYPDLNFIIGGEGPKRIILEEVRERYQLHDRVRLLGALEHKDVRNVLVQGHIFLNTSLTEAFCMAIVEAASCGLQVVSTRVGGIPEVLPENLIILCEPSVKSLCEGLEKAIFQLKSGTLPAPENIHNIVKTFYTWRNVAERTEKVYDRVSVEAVLPMDKRLDRLISHCGPVTGYIFALLAVFNFLFLIFLRWMTPDSIIDVAIDATGPRGAWTNNYSHSKRGGENNEISETR [PIGA],-0.133,-0.383,-0.682,55 °C,53.6 °C,-0.107
MADAASQVLLGSGLTILSQPLMYVKVLIQVGYEPLPPTIGRNIFGRQVCQLPGLFSYAQHIASIDGRRGLFTGLTPRLCSGVLGTVVHGKVLQHYQESDKGEELGPGNVQKEVSSSFDHVIKETTREMIARSAATLITHPFHVITLRSMVQFIGRESKYCGLCDSIITIYREEGILGFFAGLVPRLLGDILSLWLCNSLAYLVNTYALDSGVSTMNEMKSYSQAVTGFFASMLTYPFVLVSNLMAVNNCGLAGGCPPYSPIYTSWIDCWCMLQKEGNMSRGNSLFFRKVPFGKTYCCDLKMLI [MTCH2],-0.018,-2.66,-2.99,56.6 °C,57 °C,0.00924
MADAEVIILPKKHKKKKERKSLPEEDVAEIQHAEEFLIKPESKVAKLDTSQWPLLLKNFDKLNVRTTHYTPLACGSNPLKREIGDYIRTGFINLDKPSNPSSHEVVAWIRRILRVEKTGHSGTLDPKVTGCLIVCIERATRLVKSQQSAGKEYVGIVRLHNAIEGGTQLSRALETLTGALFQRPPLIAAVKRQLRVRTIYESKMIEYDPERRLGIFWVSCEAGTYIRTLCVHLGLLLGVGGQMQELRRVRSGVMSEKDHMVTMHDVLDAQWLYDNHKDESYLRRVVYPLEKLLTSHKRLVMKDSAVNAICYGAKIMLPGVLRYEDGIEVNQEIVVITTKGEAICMAIALMTTAVISTCDHGIVAKIKRVIMERDTYPRKWGLGPKASQKKLMIKQGLLDKHGKPTDSTPATWKQEYVDYSESAKKEVVAEVVKAPQVVAEAAKTAKRKRESESESDETPPAAPQLIKKEKKKSKKDKKAKAGLESGAEPGDGDSDTTKKKKKKKKAKEVELVSE [DKC1],0.816,-3.35,-5.27,55.6 °C,53.2 °C,-1.41
MADAGIRRVVPSDLYPLVLGFLRDNQLSEVANKFAKATGATQQDANASSLLDIYSFWLKSAKVPERKLQANGPVAKKAKKKASSSDSEDSSEEEEEVQGPPAKKAAVPAKRVGLPPGKAAAKASESSSSEESSDDDDEEDQKKQPVQKGVKPQAKAAKAPPKKAKSSDSDSDSSSEDEPPKNQKPKITPVTVKAQTKAPPKPARAAPKIANGKAASSSSSSSSSSSSDDSEEEKAAATPKKTVPKKQVVAKAPVKAATTPTRKSSSSEDSSSDEEEEQKKPMKNKPGPYSSVPPPSAPPPKKSLGTQPPKKAVEKQQPVESSEDSSDESDSSSEEEKKPPTKAVVSKATTKPPPAKKAAESSSDSSDSDSSEDDEAPSKPAGTTKNSSNKPAVTTKSPAVKPAAAPKQPVGGGQKLLTRKADSSSSEEESSSSEEEKTKKMVATTKPKATAKAALSLPAKQAPQGSRDSSSDSDSSSSEEEEEKTSKSAVKKKPQKVAGGAAPSKPASAKKGKAESSNSSSSDDSSEEEEEKLKGKGSPRPQAPKANGTSALTAQNGKAAKNSEEEEEEKKKAAVVVSKSGSLKKRKQNEAAKEAETPQAKKIKLQTPNTFPKRKKGEKRASSPFRRVREEEIEVDSRVADNSFDAKRGAAGDWGERANQVLKFTKGKSFRHEKTKKKRGSYRGGSISVQVNSIKFDSE [NOLC1],1.11,-2.83,-4.21,59.5 °C,57 °C,-0.953
MADDDVLFEDVYELCEVIGKGPFSVVRRCINRETGQQFAVKIVDVAKFTSSPGLSTEDLKREASICHMLKHPHIVELLETYSSDGMLYMVFEFMDGADLCFEIVKRADAGFVYSEAVASHYMRQILEALRYCHDNNIIHRDVKPHCVLLASKENSAPVKLGGFGVAIQLGESGLVAGGRVGTPHFMAPEVVKREPYGKPVDVWGCGVILFILLSGCLPFYGTKERLFEGIIKGKYKMNPRQWSHISESAKDLVRRMLMLDPAERITVYEALNHPWLKERDRYAYKIHLPETVEQLRKFNARRKLKGAVLAAVSSHKFNSFYGDPPEELPDFSEDPTSSGLLAAERAVSQVLDSLEEIHALTDCSEKDLDFLHSVFQDQHLHTLLDLYDKINTKSSPQIRNPPSDAVQRAKEVLEEISCYPENNDAKELKRILTQPHFMALLQTHDVVAHEVYSDEALRVTPPPTSPYLNGDSPESANGDMDMENVTRVRLVQFQKNTDEPMGITLKMNELNHCIVARIMHGGMIHRQGTLHVGDEIREINGISVANQTVEQLQKMLREMRGSITFKIVPSYRTQSSSCERDSPSTSRQSPANGHSSTNNSVSDLPSTTQPKGRQIYVRAQFEYDPAKDDLIPCKEAGIRFRVGDIIQIISKDDHNWWQGKLENSKNGTAGLIPSPELQEWRVACIAMEKTKQEQQASCTWFGKKKKQYKDKYLAKHNAVFDQLDLVTYEEVVKLPAFKRKTLVLLGAHGVGRRHIKNTLITKHPDRFAYPIPHTTRPPKKDEENGKNYYFVSHDQMMQDISNNEYLEYGSHEDAMYGTKLETIRKIHEQGLIAILDVEPQALKVLRTAEFAPFVVFIAAPTITPGLNEDESLQRLQKESDILQRTYAHYFDLTIINNEIDETIRHLEEAVELVCTAPQWVPVSWVY [CASK],-0.0742,-0.366,-0.0785,52.1 °C,51.9 °C,-0.129
